“And” between values parts separate entries of the source, which are not always exact repeats. Equal values may be shown once. Non-standard residues stand in square brackets, D forms with d. No end group written: not given here. pY = N[C@@H](Cc1ccc(OP(=O)(O)O)cc1)C(=O)O; Rhodamine = not defined here; rhodamine = not defined here

Holding throughout (conditions): both partners purified
One assay addresses T1, SRC SH2 domain (human, UniProt P12931-1 151-248).
T1 construct: SRC, human; also called c-Src; source: bacterial expression, purified
In words: fluorescence polarisation; saturation binding in solution: rhodamine peptide fixed at 10 nM, protein titrated 0.002-10 uM, 20 min at room temperature; assay buffer 20 mM HEPES, 100 mM KCl, 0.1% Tween-20, 5 mM DTT, pH 7.8; apparent KD. Background: Fluorescence polarisation rises when a labelled molecule tumbles more slowly, as on binding a larger partner.

Another assay addresses T2, PTK6 SH2 domain (human, UniProt Q13882 78-170).
T2 construct: PTK6, human; source: bacterial expression, purified
The description is as above.

A further assay deals with T3, GRB7 SH2 domain (human, UniProt Q14451 431-527).
T3 construct: GRB7, human; source: bacterial expression, purified
Described as above.

The target in a further assay is T4, VAV2 SH2 domain (human, UniProt P52735 673-767).
T4 construct: VAV2, human; source: bacterial expression, purified
T4 sequence (looked up): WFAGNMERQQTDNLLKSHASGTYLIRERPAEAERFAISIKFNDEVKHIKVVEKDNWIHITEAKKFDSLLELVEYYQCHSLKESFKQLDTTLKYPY
In words: SPR; Biacore 3000; 6X His SH2 proteins held on a Ni-NTA chip, dye-free peptides in solution, equilibrium. Background: SPR reads the build-up and loss of mass on a sensor chip optically.

For assay [1], the target named is T5, PLCG1 C-terminal SH2 domain (human).
T5 construct: PLCG1, human; source: bacterial expression, purified
T5 sequence (P19174 whole entry, looked up): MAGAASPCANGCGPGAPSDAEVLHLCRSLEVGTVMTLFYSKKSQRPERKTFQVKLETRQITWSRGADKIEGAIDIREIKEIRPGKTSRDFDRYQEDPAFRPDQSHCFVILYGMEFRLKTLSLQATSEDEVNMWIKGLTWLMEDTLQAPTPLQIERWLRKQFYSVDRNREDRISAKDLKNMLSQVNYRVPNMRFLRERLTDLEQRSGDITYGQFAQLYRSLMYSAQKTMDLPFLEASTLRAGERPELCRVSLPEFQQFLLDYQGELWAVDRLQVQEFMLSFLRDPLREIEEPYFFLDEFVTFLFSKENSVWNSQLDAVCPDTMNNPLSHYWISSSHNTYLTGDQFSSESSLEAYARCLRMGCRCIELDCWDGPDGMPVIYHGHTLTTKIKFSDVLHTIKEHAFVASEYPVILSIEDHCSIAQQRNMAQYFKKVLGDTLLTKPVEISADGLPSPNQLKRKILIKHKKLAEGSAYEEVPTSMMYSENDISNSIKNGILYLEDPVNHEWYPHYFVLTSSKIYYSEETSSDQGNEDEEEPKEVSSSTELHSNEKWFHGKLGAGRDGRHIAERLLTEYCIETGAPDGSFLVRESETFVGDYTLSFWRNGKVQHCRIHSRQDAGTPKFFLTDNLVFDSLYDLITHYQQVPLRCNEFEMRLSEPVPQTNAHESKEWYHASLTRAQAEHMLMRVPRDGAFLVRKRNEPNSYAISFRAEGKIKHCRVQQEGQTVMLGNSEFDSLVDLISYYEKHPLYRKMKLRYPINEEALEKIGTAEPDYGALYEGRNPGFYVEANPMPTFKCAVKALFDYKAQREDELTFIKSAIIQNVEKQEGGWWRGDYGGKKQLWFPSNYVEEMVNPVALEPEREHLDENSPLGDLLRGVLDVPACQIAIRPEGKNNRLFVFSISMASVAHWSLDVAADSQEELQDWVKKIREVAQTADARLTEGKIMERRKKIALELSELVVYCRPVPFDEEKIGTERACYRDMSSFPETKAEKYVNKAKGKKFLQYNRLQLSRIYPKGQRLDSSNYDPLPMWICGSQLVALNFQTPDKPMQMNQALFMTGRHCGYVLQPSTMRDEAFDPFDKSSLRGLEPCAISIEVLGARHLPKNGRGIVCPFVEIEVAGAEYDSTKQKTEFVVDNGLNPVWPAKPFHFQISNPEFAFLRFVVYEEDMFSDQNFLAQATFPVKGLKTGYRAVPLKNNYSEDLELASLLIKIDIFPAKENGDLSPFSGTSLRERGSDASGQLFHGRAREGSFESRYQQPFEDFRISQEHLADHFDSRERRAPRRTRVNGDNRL
Described as above.

In assay [2] the target is T6, PIK3R1 N-terminal SH2 domain (human).
T6 construct: PIK3R1, human; source: bacterial expression, purified
The assay is described as above.

The next assay deals with T7, TNS3 SH2 domain (human, UniProt Q68CZ2 1172-1282).
T7 construct: TNS3, human; source: bacterial expression, purified
T7 sequence (looked up): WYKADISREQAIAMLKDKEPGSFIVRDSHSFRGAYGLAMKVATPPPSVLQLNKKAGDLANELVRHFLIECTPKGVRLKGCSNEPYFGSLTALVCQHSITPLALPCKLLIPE
The description is as above.

For assay [3], the target named is T8, SYK C-terminal SH2 domain (human).
T8 construct: SYK, human; source: bacterial expression, purified
The description is as above.

The target in assay [4] is T9, PIK3R3 C-terminal SH2 domain (human).
T9 construct: PIK3R3, human; source: bacterial expression, purified
The description is as above.

A further assay concerns the target T10, BLNK SH2 domain (human, UniProt Q8WV28 346-453).
T10 construct: BLNK, human; source: bacterial expression, purified
T10 sequence (looked up): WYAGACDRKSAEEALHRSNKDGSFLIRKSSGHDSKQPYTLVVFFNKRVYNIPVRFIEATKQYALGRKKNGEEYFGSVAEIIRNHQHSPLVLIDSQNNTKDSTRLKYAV
In words: peptide or protein array; SH2/PTB proteins spotted on aldehyde slides, rhodamine peptide titrated in buffer B (20 mM HEPES, 100 mM KCl, 0.1% Tween-20, 5 mM DTT, pH 7.8), 1 h at room temperature; replicate assays.

The target of the next assay is T11, YES1 SH2 domain (human, UniProt P07947 158-255).
T11 construct: YES1, human; source: bacterial expression, purified
The assay is described as above.

A further assay addresses SYK tandem SH2 domains (human). The description is as above.
For another assay, the target named is T12, ABL2 SH2 domain (human, UniProt P42684 173-263).
T12 construct: ABL2, human; source: bacterial expression, purified
T12 sequence (looked up): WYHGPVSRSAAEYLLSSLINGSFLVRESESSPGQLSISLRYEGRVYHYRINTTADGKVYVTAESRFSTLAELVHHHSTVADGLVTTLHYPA
The assay is described as above.

For the next assay, the target named is T13, SHF SH2 domain (human, UniProt Q7M4L6 323-418).
T13 construct: SHF, human; source: bacterial expression, purified
T13 sequence (looked up): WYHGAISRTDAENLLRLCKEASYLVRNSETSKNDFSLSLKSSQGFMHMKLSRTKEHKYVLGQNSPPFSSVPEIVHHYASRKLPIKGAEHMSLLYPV
Described as above.

In a further assay the target is T14, BLK SH2 domain (human, UniProt P51451 124-220).
T14 construct: BLK, human; source: bacterial expression, purified
The description is as above.

The target in the next assay is T15, STAP1 SH2 domain (human, UniProt Q9ULZ2 177-280).
T15 construct: STAP1, human; source: bacterial expression, purified
T15 sequence (looked up): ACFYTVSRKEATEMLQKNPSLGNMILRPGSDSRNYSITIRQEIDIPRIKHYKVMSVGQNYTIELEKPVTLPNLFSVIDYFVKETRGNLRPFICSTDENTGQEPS
The assay is described as above.

In the next assay the target is T16, SUPT6H SH2 domain (human, UniProt Q7KZ85 1325-1431).
T16 construct: SUPT6H, human; source: bacterial expression, purified
The assay is described as above.

For the next assay, the target named is T17, ITK SH2 domain (human, UniProt Q08881 239-338).
T17 construct: ITK, human; source: bacterial expression, purified
T17 sequence (looked up): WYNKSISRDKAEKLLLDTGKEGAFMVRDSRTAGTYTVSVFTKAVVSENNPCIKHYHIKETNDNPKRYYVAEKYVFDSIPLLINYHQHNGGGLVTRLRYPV
Described as above.

For another assay, the target named is T18, SH2D3A SH2 domain (human, UniProt Q9BRG2 15-114).
T18 construct: SH2D3A, human; source: bacterial expression, purified
Described as above.

The next assay addresses T19, LCK SH2 domain (human, UniProt P06239 127-224).
T19 construct: LCK, human; source: bacterial expression, purified
The assay is described as above.

The target of the next assay is T20, SHC1 domain construct (human).
T20 chain: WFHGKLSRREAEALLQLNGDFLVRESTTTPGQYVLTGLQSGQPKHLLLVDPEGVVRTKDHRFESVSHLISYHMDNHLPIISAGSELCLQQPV
Described as above.

The target of a further assay is T21, GRAP2 SH2 domain (human, UniProt O75791 58-149).
T21 construct: GRAP2, human; source: bacterial expression, purified
T21 sequence (looked up): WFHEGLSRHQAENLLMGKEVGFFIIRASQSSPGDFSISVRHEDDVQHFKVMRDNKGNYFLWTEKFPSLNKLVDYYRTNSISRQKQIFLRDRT
Described as above.

T14 sequence (P51451 124-220): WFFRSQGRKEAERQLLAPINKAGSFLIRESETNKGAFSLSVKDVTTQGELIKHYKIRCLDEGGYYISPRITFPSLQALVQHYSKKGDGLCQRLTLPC
T11 sequence (P07947 158-255): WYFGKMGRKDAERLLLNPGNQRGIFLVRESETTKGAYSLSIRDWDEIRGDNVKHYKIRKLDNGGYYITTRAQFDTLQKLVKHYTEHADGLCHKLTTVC
T19 sequence (P06239 127-224): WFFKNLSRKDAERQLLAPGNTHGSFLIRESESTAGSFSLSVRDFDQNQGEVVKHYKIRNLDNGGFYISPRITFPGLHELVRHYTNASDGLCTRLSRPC
T16 sequence (Q7KZ85 1325-1431): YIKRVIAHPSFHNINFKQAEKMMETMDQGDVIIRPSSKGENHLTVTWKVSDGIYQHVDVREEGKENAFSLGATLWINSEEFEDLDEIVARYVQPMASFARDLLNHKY
T2 sequence (Q13882 78-170): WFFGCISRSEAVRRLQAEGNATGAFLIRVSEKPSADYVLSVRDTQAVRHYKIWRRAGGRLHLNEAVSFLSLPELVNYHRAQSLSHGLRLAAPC
T18 sequence (Q9BRG2 15-114): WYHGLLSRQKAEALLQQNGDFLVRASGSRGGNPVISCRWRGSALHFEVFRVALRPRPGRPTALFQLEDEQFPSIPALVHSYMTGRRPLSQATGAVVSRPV
T3 sequence (Q14451 431-527): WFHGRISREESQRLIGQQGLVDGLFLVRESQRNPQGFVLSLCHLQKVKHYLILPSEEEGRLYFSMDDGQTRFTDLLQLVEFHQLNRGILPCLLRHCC

B1: ErbB3pY1222 phosphopeptide, rhodamine-labelled (peptide)
peptide: rhodamine-EELG[pY]EYMDVGSD
modifications: reading uncertain
notes: human ErbB3 around Tyr1222; also called labeled peptide 5; source: synthetic peptide
In the case of B1, the Kd with SRC SH2 domain is 2330 nM.

B2: ErbB3pY1197 phosphopeptide, rhodamine-labelled (peptide)
peptide: Rhodamine-EDEE[pY]EYMNRRRD
modifications: reading uncertain
notes: human ErbB3 around Tyr1197; also called labeled peptide 4; source: synthetic peptide
For B2, the Kd was 5790 nM with PTK6 SH2 domain and 130 nM with GRB7 SH2 domain.

B3: MET pY1313 phosphopeptide, dye-free (peptide)
chain: PDPL[pY]EVMLKCW
Consider B3, for which the Kd in the assay with VAV2 SH2 domain worked out at 2510 nM; in assay [1], 486 nM; in assay [2] it was 53 nM; with TNS3 SH2 domain, 132 nM; in assay [3], 1660 nM; in assay [4], 56 nM.

B4: ErbB2 pY1112 phosphopeptide, rhodamine-labelled, for protein microarrays (peptide)
chain: Rhodamine-PLQR[pY]SEDPTVPD
modifications: reading uncertain
In the case of B4, the Kd in the assay with BLNK SH2 domain was 4900 nM; in the assay with YES1 SH2 domain, 720 nM and 1600 nM; in the assay with SYK tandem SH2 domains, 893 nM and 803 nM; with ABL2 SH2 domain, 1840 nM; with SHF SH2 domain, 2970 nM; with BLK SH2 domain, 3220 nM and 1170 nM and 2070 nM. The Kd with STAP1 SH2 domain was 50 nM; in the assay with SUPT6H SH2 domain, 1040 nM; with ITK SH2 domain it was 52900 nM; with SH2D3A SH2 domain, 26600 nM; in the assay with LCK SH2 domain it was 10300 nM and 8930 nM; with SHC1 domain construct, 1260 nM and 3060 nM. In the assay with GRAP2 SH2 domain, this molecule came in with a Kd of 7150 nM.

Source of the values: paper PMC3433420, “Comprehensive Binary Interaction Mapping of SH2 Domains via Fluorescence Polarization Reveals Novel Functional Diversification of ErbB Receptors” (PLoS ONE, 2012).
